Measurements from publication PMC6356362.

Biological target: recombinant GP of EBOV (Mayinga strain), mucin and TM domains-deleted protein (GP[change] sequence w (Zaire ebolavirus (EBOV), Mayinga strain), Q05320
Assay: SPR
Conditions: remark: other sources report otherwise

B1: recombinant human surfactant protein D (hSP-D) dodecamers, P35247 21-375 (natural protein)
chain: AEMKTYSHRTMPSACTLVMCSSVESGLPGRDGRDGREGPRGEKGDPGLPGAAGQAGMPGQAGPVGPKGDNGSVGEPGPKGDTGPSGPPGPPGVPGPAGREGPLGKQGNIGPQGKPGPKGEAGPKGEVGAPGMQGSAGARGLAGPKGERGVPGERGVPGNTGAAGSAGAMGPQGSPGARGPPGLKGDKGIPGDKGAKGESGLPDVASLRQQVEALQGQVQHLQAAFSQYKKVELFPNGQSVGEKIFKTAGFVKPFTEAQLLCTQAGGQLASPRSAAENAALQQLVVAKNEAAFLSMTDSKTEGKFTYPTGESLVYSNWAPGEPNDDGGSEDCVEIFTNGKWNDRACGEKRLVVCEF
Kd: 330 pM | koff: 0.00121 s⁻¹ | kon: 3.65e+06 M⁻¹ s⁻¹
